“Also recorded” adds a separate entry of the source. Ends that are not written are not given here.
What was measured:
rat renal membranes = conditions: cited from earlier work
human PTH-1 receptor [1] = molecular target: T1, human PTH-1 receptor (Homo sapiens, UniProt Q03431); assay: cAMP in LLC-PK1 cells stably transfected with the human PTH-1 receptor (LLC-B7 cells); assay type: cell-based; set-up: expressed in transfected cells
T1 sequence (Q03431 27-593): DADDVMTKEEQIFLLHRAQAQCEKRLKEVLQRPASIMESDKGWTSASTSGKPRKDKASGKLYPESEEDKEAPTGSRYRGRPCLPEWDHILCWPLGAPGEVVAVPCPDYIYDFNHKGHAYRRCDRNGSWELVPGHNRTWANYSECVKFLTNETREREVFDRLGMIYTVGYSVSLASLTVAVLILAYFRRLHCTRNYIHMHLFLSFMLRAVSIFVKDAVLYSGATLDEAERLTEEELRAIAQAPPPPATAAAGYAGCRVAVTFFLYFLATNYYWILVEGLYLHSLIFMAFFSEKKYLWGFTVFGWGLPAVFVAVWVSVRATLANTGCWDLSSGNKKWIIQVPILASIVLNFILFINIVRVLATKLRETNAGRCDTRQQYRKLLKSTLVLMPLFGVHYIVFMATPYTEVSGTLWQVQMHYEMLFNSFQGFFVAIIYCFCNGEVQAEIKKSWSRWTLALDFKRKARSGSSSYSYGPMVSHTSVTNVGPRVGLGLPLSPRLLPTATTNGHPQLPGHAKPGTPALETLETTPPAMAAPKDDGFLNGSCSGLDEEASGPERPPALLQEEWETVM
Procedure: FIG. 3. cAMP dose response curves of short amino-terminal PTH analogs in LLC-PK1 cells stably transfected with the human PTH-1 receptor (LLC-B7 cells). LLC-B7 cells in 24 plates were treated with the indicated peptides for 60 mins at 21° C., and then intracellular cAMP levels were measured. All PTH peptides shown are based on the rat PTH sequence and are carboxy-terminally amidated.
FIG. 7. cAMP activity of [Ile5]PTHrP(1-14). LLC-B7 cells were treated with the indicated peptide ligand, each at 100 μM, and then intracellular cAMP levels were measured.
Intracellular cAMP accumulation was measured as described previously (Abou-Samra et al., J. Biol. Chem. 262:1129, 1986). Cells in 24-well plates were rinsed with culture medium containing 0.1% BSA and 2 mM IBMX. The cells were then incubated with compounds of SEQ ID NO: 1 or derivatives thereof for 60 min. at 21° C. […] Intracellular cAMP was extracted by thawing the cells in 1 ml of 50 mM HCl and analyzed by a specific radioimmunoassay using an anti-cAMP antibody (e.g., Sigma, St. Louis, Mo.). […] The supernatant was removed and the bound radioactivity was counted in a gamma-counter (Micromedic). […]
The analysis extends to the PTHrP(1-14) sequence as well. […] LLC-B7 cells were treated with the indicated peptide ligand, each at 100 μM, and then intracellular cAMP levels were measured.

PTH = conditions: in vitro; cited from earlier work
AC = conditions: cited from earlier work
the receptor = conditions: cited from earlier work
[2] = molecular target: T2, rat secretin receptor (rSR) (Rattus norvegicus, UniProt P23811); assay: cAMP in COS-7 cells transfected with rat secretin receptor (specificity); assay type: cell-based; conditions: COS-7 cells transfected with rSR; FIG. 6
T2 construct: expressed in transfected cells; host or cells: COS-7
T2 sequence (P23811 26-449): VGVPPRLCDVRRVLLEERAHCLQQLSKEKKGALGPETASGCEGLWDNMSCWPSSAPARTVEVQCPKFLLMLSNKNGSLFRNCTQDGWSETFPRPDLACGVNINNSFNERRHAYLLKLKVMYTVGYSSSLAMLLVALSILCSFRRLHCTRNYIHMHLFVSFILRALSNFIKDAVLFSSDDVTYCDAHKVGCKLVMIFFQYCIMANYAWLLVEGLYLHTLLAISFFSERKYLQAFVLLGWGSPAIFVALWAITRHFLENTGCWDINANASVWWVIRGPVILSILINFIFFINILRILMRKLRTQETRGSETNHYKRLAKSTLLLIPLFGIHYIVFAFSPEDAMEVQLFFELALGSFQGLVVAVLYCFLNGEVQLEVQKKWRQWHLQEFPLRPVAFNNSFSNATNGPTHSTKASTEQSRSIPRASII
Procedure: FIG. 6. Specificity of PTH(1-14). […] Thus, the response to PTH(1-14) is dependent on the presence of the PTH-1 receptor.
(§1) PTH(1-14) specificity was also tested using the porcine renal cell line LLC-PK1, either untransfected or stably transfected with the human PTH-1 receptor, the LLC-B7 cell line.

rat PTH-1 receptor = molecular target: T3, rat PTH-1 receptor (Rattus norvegicus, UniProt P25961); conditions: CHO cells expressing cloned rat PTH-1 receptor; cited from earlier work
T3 sequence (P25961 27-591): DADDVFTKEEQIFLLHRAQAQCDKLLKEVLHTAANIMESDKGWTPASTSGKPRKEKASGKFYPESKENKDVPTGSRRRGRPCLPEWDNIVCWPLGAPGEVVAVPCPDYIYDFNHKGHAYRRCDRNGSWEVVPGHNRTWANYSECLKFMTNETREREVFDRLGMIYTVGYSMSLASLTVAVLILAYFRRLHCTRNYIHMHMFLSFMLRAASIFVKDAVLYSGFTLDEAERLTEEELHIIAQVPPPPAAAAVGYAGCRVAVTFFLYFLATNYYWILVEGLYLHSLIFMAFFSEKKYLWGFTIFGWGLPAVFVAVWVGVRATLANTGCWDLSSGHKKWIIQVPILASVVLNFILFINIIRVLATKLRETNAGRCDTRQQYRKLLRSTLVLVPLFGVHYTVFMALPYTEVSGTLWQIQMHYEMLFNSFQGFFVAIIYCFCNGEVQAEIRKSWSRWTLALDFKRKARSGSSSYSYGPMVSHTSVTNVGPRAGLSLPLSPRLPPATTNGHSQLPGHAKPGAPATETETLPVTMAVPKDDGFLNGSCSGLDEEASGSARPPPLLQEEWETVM

[3] = tested on: untransfected LLC-PK1 cells; assay: cAMP dose response in LLC-B7 cells versus untransfected LLC-PK1 cells; assay type: cell-based, porcine; conditions: LLC-B7 cells vs untransfected LLC-PK1 cells; FIG. 4
Procedure: FIG. 4. cAMP dose response curves of PTH(1-14) in LLC-B7 cells and in untransfected LLC-PK1 cells. PTH(1-14) and PTH(1-34) control peptides were tested as in FIG. 3.
as §1

human PTH-1 receptor [4] = molecular target: T1, human PTH-1 receptor; assay: cAMP accumulation in COS-7 cells expressing the cloned human PTH-1 receptor; assay type: cell-based; set-up: expressed in transfected cells; host or cells: COS-7; conditions: for stimulation of cAMP formation: COS-7 cells expressing cloned human PTH-1 receptor, peptides at 67 μM, 30 minutes at 21° C.
Procedure: FIG. 1. Bioactivity of amino-terminal and carboxy-terminal fragments of PTH(1-34). Fragments of parathyroid hormone were synthesized by chemical methods and purified by reverse-phase HPLC. Peptides were tested for the ability to stimulate cAMP accumulation in COS-7 cells expressing the cloned human PTH-1 receptor. PTH(1-34) was tested at a dose of 1 μM, other peptides were tested at 67 μM. Peptides were tested in duplicate (±s.e.m.) at a dose of 67 μM. The cAMP in control untreated cells is indicated by Bsl. Cells were treated for 30 minutes at 21° C.
FIG. 2. Alanine-scan of PTH(1-14). Shown are the bioactivities of 14 different PTH(1-14) derivatives, each having a different amino acid of the native sequence (shown at bottom of figure) (SEQ ID NO:14) replaced by alanine. Peptides were chemically synthesized, purified and tested for ability to stimulate cAMP formation in COS-7 cells expressing the cloned human PTH-1 receptor. Peptides were tested in duplicate (±s.e.m.) at a dose of 67 μM. As a control, untreated cells, indicated by basal, were measured. The PTH(1-14) containing alanine at position 1 was used as the wild-type reference. Cells were stimulated for 30 minutes at 21° C.
Intracellular cAMP accumulation was measured as described previously (Abou-Samra et al., J. Biol. Chem. 262:1129, 1986). Cells in 24-well plates were rinsed with culture medium containing 0.1% BSA and 2 mM IBMX. The cells were then incubated with compounds of SEQ ID NO: 1 or derivatives thereof for 60 min. at 21° C. The supernatant was removed and the cells immediately frozen by placing the whole plate in dry ice powder. Intracellular cAMP was extracted by thawing the cells in 1 ml of 50 mM HCl and analyzed by a specific radioimmunoassay using an anti-cAMP antibody (e.g., Sigma, St. Louis, Mo.). A cAMP analog (2′-O-monosuccinyl-adenosine 3′:5′-cyclic monophosphate tyrosyl methyl ester, obtained from Sigma) which was used a tracer for cAMP was iodinated by the chloramine T method. Free iodine was removed by adsorbing the iodinated cAMP analog onto a C18 Sep-pak cartridge (Waters, Milford, Mass.). After washing with dH20, the iodinated cAMP analog was eluted from the Sep-pak Cartridge with 40% acetonitrille (ACN) and 0.1% trifluoroacetic acid (TFA). The iodinated cAMP analog was lyophilized, reconstituted in 1 ml 0.1% TFA, and injected into a C18 reverse phase HPLC column (Waters). The column was equilibrated with 10% ACN in 0.1% TFA, and eluted with gradient of 10-30% ACN in 0.1% TFA. This allows separation of the mono-iodinated cAMP analog from the non-iodinated cAMP analog. The tracer is stable for up to 4 months when stored at −20° C. […] The supernatant was removed and the bound radioactivity was counted in a gamma-counter (Micromedic). […]

Substance: bPTH(1-12): short NH2-terminal PTH peptide investigated previously (AVSEIQFMHNLG; Parathyroid hormone; UniProt P01268 32-43, looked up, fragment)
- adenylyl cyclase activity (rat renal membranes): inactive

Substance: AVSEIQLLHDKGKS [[Ile^5] PTHrP(1-14)]
- cAMP activity, potency relative to native PTHrP(1-14) (human PTH-1 receptor [1]; each peptide at 100 μM, FIG. 7): enhanced potency, relative to native PTHrP(1-14)

Substance: PTH(3-34): synthetic analog of bovine PTH (SEIQFMHNLGKHLSSMERVEWLRKKLQDVHNF; Parathyroid hormone; UniProt P01268 34-65, looked up, fragment)
- PTH antagonist activity (PTH): potent PTH antagonist in vitro

Substance: PTH(15-34): PTH(15-34) fragment
- activation of AC (AC): does not activate AC
- receptor binding (the receptor): binds weakly

Substance: secretin (1-27): control native secretin (1-27) [reference compound]
- stimulation of cAMP in cells expressing rat secretin receptor [2]: responds fully

Substance: PTHrP(1-16): short NH2-terminal PTHrP peptide investigated previously (AVSEHQLLHDKGKSIQ; Parathyroid hormone-related protein; UniProt P12272 37-52, looked up, fragment)
- AC activity (rat PTH-1 receptor): inactive

Substance: PTH(1-14): 1-14 fragment of PTH; peptides in FIG. 3 are based on the rat PTH sequence (alanine at position 1) (SVSEIQLMHNLGKH)
- dependence of cAMP response on PTH-1 receptor [3]: dependent on PTH-1 receptor expression; also recorded: completely dependent on the presence of the PTH-1 receptor
- stimulation of cAMP in cells expressing rat secretin receptor [2]: inactive; also recorded: does not stimulate cAMP

Substance: AlaValSerGluIleGlnLeuMetHisAsnLeuGlyLysHis (AVSEIQLMHNLGKH-NH2) [[Ala^1] PTH(1-14)]
- activity relative to native PTH(1-34) (human PTH-1 receptor [4]; FIG. 1, PTH(1-34) at 1 μM, other peptides at 67 μM): weaker than native PTH(1-34)
- bioactivity relative to native PTH(1-14) (human PTH-1 receptor [4]; Ser1 to Ala substitution, compared with native PTH(1-14) peptide): measurable increase in bioactivity over the background level of bioactivity of the native PTH(1-14) peptide

Substance: PTH(1-13): PTH variant truncated by one amino acid at the C-terminus, residues 1-13; rat PTH sequence (AVSEIQLMHNLGK)
- cAMP dose response activity (human PTH-1 receptor [1]; 60 mins at 21° C., rat PTH sequence, carboxy-terminally amidated, FIG. 3): only very weak activity

Substance: AVSEIQLMH [[Ala^1] PTH(1-9)]
- stimulation of cAMP formation (human PTH-1 receptor [4]; FIG. 1): small cAMP response; also recorded: exhibits some biological activity

Substance: PTH(15-31): carboxy-terminal fragment of PTH(1-34) (LNSMERVEWLRKKLQDV; Parathyroid hormone; UniProt P01270 46-62, looked up, fragment) [reference compound]
- stimulation of cAMP formation (human PTH-1 receptor [4]; FIG. 1): inactive
